What was measured:
[1] = target: T1, Human MMP-9 catalytic domain (Homo sapiens, UniProt P14780); assay: Inhibition progress curves and kinetic analysis (kobs, kon, koff); assay type: biochemical; details: 25° C.; for kobs: substrate 9 μM
T1 construct: Human MMP-9 catalytic domain (BIOMOL, SE-244); purchased BIOMOL SE-244
Experimental: The kinetics of the interaction between M0237-D02 and the human MMP-9 were determined. The rates were determined using the following equation: […]
The second order rate constant for the association of the enzyme E and the inhibitor I (kon) and the first order rate constant for the dissociation of the complex EI (koff) can be calculated from inhibition progress curves obtained at different inhibitor concentrations.
Materials: • Substrate: Mca-KPLGL-Dap(Dnp)-AR-NH2 (M-2350) from BACHEM (521575). A 10 mM stock solution was prepared in DMSO. • Human MMP-9 catalytic domain (BIOMOL, SE-244). • M0237-D02 hIgG1: 2517-068. • All measurements were performed at 25° C. in TCNB: 50 mM Tris/HCl, 10 mM CaCl2, 150 mM NaC10.05% Brij 35, pH 7.5. • 96-well black plates from Perkin Elmer (6005270) • Spectramax M2e to measure fluorescence emission of the substrate upon hydrolysis (λexc=328 nm and λem=393 nm)
The enzyme (at a final concentration ranging from 1.5 to 12.3 nM), the substrate (9 μM final) and the M0237-D02 antibody were mixed, and the fluorescence was immediately recorded in order to follow the hydrolysis of the substrate. The observed inhibition rate (kobs) was obtained by analyzing the progress curves with a single exponential. The value for kon and koff were calculated from the plot of the kobs vs. the antibody concentration using the following equation: […]

MMP-9 = MMP-9 (Homo sapiens, UniProt P14780); assay: Enzyme inhibition assay (single point inhibition, IC50/Ki,app), substrate M-2350; assay type: biochemical; set-up: Human MMP-9 catalytic domain (BIOMOL, SE-244); purchased BIOMOL SE-244
Sequence of MMP-9 (P14780 107-444 limits assumed): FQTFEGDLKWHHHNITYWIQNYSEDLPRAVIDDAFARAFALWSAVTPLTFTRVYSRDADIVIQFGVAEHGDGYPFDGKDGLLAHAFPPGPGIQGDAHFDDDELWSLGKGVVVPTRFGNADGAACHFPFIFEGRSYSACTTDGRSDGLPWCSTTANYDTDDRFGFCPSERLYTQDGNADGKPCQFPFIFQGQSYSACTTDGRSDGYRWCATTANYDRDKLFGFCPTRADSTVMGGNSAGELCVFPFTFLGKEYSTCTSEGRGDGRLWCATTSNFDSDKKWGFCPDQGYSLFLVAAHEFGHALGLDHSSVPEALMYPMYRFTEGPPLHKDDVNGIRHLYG
Experimental: (§1) 343 unique sFabs from the anti-MMP-9/-2 M237-D02 affinity maturation campaign were discovered by phage display, produced in small scale (6 mL cultures in deep 24-well plates) and screened to select inhibitors with sub-nanomolar potency against the human enzymes and at least single-digit nanomolar potency toward the mouse orthologues. […] Isolates which appeared potent against both human and mouse MMP-2 were then subjected to IC50 analysis against hMMP-9. Sub-nanomolar inhibitors of hMMP-9 were further tested by IC50 analysis against mMMP-9 and h/m MMP-2, if sufficient small-scale sFab material was available. Thirteen potential h/m MMP-9/-2 sFab inhibitors were then produced in medium scale (250 mL cultures in flasks) and retested for h/m MMP-9 and h/m MMP-2 inhibition. Five potential lead candidates were reformatted as IgGs and retested in enzyme inhibition assays.
Human MMP-9 (Biomol #SE-244), mouse MMP-9 (R&D Systems #909-MM-010), human MMP-2 (Biomol #SE-237) and mouse MMP-2 (R&D Systems #924-MP-010) were tested at final concentrations of 1 nM, 0.25-0.4 nM, 2.5 nM and 0.2 nM, respectively. Target enzymes were incubated with inhibitor for two hours at 30° C. in reaction buffer (50 mM Tris-HCl pH 7.5, 150 mM NaCl, 5 mM CaCl2, 0.05% Brij-35) in a total volume of 90 μL using a white 96 well plate (Costar). Reactions contained 5 μL of small-scale sFab stock solution (average concentration of 500 nM) for single point inhibition analysis or a concentration series of sFab/IgG for IC50 Ki,app determinations. […] Reactions were initiated by the addition of 10 μL of a 10× concentrated stock of substrate, Mca-Lys-Pro-Leu-Gly-Leu-Dap(Dnp)-Ala-Arg-NH2, (Bachem M-2350), at final concentration of 10 μM and monitored at 30° C. in a Molecular Devices' Gemini fluorescence plate reader. […] Kinetic data were acquired by the increase in fluorescence, and initial rates for each condition were plotted against the total inhibitor concentration. […]

mouse MMP-2 = target: T2, mouse MMP-2 (Mus musculus, UniProt P33434); assay: as above; assay type: biochemical
T2 construct: purchased R&D Systems 924-MP-010
T2 sequence (P33434 110-662): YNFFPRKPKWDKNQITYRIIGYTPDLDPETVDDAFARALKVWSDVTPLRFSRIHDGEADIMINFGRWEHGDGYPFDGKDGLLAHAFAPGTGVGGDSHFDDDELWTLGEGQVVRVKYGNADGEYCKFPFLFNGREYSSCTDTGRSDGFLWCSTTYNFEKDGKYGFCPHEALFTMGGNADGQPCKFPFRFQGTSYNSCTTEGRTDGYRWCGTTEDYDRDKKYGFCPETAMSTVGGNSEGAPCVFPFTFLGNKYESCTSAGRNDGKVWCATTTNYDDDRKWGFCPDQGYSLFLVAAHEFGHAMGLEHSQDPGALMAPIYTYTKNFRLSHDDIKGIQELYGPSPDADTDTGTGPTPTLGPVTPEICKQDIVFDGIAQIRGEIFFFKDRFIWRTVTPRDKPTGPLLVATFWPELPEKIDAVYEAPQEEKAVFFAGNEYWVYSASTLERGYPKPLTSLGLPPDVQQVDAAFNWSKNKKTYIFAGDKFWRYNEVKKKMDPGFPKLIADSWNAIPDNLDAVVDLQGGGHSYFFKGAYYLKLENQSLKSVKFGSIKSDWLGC
Experimental: as §1
(§2) Human MMP-9 (Biomol #SE-244), mouse MMP-9 (R&D Systems #909-MM-010), human MMP-2 (Biomol #SE-237) and mouse MMP-2 (R&D Systems #924-MP-010) were tested at final concentrations of 1 nM, 0.25-0.4 nM, 2.5 nM and 0.2 nM, respectively. Target enzymes were incubated with inhibitor for two hours at 30° C. in reaction buffer (50 mM Tris-HCl pH 7.5, 150 mM NaCl, 5 mM CaCl2, 0.05% Brij-35) in a total volume of 90 μL using a white 96 well plate (Costar). Reactions contained 5 μL of small-scale sFab stock solution (average concentration of 500 nM) for single point inhibition analysis or a concentration series of sFab/IgG for IC50 Ki,app determinations. Commercially available anti-MMP-9 antibodies (Millipore mAb 13415 and R&D Systems polyclonal IgG #AB911) were tested by IC50 analyses using 100 nM and 500 nM as the highest inhibitor concentrations, respectively. An anti-MMP-2 antibody (R&D Systems polyclonal IgG #AF902) was similarly tested with 200 nM as the highest inhibitor concentration. Reactions were initiated by the addition of 10 μL of a 10× concentrated stock of substrate, Mca-Lys-Pro-Leu-Gly-Leu-Dap(Dnp)-Ala-Arg-NH2, (Bachem M-2350), at final concentration of 10 μM and monitored at 30° C. in a Molecular Devices' Gemini fluorescence plate reader. The excitation and emission wavelengths were set at 328 nm and 393 nm, respectively. Kinetic data were acquired by the increase in fluorescence, and initial rates for each condition were plotted against the total inhibitor concentration. Reactions were performed in duplicates and all data replicates were plotted in a single graph and fit to the following equation^1:
(§3) Where A=initial rate observed at each inhibitor concentration; Ao=initial rate observed in the absence of inhibitor; Ainh=initial rate observed for the enzyme inhibitor complex; Inh=concentration of inhibitor; E=total enzyme concentration (treated as a floated parameter); and Ki,app=apparent equilibrium inhibition constant.

human MMP-2 = target: T3, human MMP-2 (Homo sapiens, UniProt P08253); assay: as above; assay type: biochemical
T3 construct: purchased Biomol SE-237
T3 sequence (P08253 110-446 limits assumed): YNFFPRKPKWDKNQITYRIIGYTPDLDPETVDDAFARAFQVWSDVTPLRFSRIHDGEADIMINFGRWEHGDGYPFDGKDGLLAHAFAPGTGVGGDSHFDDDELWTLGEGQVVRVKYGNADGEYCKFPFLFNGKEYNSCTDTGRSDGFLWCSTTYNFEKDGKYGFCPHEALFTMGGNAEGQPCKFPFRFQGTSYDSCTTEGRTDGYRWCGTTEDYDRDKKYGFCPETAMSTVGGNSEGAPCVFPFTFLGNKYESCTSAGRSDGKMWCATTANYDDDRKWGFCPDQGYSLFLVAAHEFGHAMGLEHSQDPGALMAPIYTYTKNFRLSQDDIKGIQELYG
Experimental: as §1, §2, §3

Mouse MMP-9 = target: T4, Mouse MMP-9 (Mus musculus, UniProt P41245); assay: as above; assay type: biochemical
T4 construct: purchased R&D Systems 909-MM (909-MM-010)
T4 sequence (P41245 108-730): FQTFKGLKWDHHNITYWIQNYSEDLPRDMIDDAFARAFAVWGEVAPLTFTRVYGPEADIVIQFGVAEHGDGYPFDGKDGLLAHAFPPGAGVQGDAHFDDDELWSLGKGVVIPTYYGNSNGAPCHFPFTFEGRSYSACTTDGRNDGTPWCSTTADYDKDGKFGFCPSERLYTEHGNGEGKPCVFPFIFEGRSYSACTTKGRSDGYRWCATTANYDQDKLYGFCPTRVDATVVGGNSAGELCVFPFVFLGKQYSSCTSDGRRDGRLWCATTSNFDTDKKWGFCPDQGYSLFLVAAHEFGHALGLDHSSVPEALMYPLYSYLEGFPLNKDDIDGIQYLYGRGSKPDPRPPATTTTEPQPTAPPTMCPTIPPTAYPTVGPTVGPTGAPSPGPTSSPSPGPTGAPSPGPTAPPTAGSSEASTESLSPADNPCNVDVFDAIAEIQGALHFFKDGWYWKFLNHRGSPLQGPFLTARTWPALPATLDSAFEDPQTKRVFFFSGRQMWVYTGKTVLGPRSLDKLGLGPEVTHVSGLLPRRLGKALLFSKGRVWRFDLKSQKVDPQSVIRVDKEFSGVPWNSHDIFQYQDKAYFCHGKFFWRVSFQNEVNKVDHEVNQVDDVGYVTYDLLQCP
Experimental: as §1, §2, §3

h-MMP-9/h-TIMP-1 complex = h-MMP-9/h-TIMP-1 complex (Homo sapiens, UniProt P14780); assay: Biacore 3000 binding to antibody-coated CM5 chip; details: 25° C.
Sequence of h-MMP-9/h-TIMP-1 complex (P14780 107-444 limits assumed): as the sequence (P14780 107-444 limits assumed) above
Sequence of h-MMP-9/h-TIMP-1 complex (P01033 24-207 partner): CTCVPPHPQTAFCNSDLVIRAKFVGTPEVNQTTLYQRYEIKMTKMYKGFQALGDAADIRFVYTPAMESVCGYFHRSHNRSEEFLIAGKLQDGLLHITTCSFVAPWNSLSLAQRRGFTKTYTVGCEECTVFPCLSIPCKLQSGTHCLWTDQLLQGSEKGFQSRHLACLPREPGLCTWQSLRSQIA
Experimental: The non competitive inhibition model implies that the ternary complex enzyme-substrate-inhibitor can form. It is however possible that this complex cannot form with bigger substrates, in which case the antibody would behave as a competitive inhibitor. In order to address this issue, the ability of M0237-D02 antibody to bind to the h-MMP-9 when the enzyme is complexed to its natural inhibitor h-TIMP-1 was determined. The reasoning is that if the antibody cannot bind to the h-MMP-9/h-TIMP-1 complex, it would probably behave as a competitive inhibitor of this enzyme in the presence of bigger substrates.
Experiments were performed at 25° C. with the help of a Biacore 3000 instrument. The MMP-9 binding protein (M0166F10) and the M0237-D02 antibody were coated to a CM5 chip either via standard amine coupling or using an anti-Fc antibody surface. Then either the active, human MMP-9 catalytic domain (BIOMOL, SE-244), the human pro-MMP-9 (R&D, 911-MP), the human TIMP-1 (R&D, 970-TM) or a h-MMP-9/h-TIMP-1 complex were flowed over the antibody surfaces, and binding was recorded.

[2] = from plot of kobs vs. antibody concentration

T1 sequence (P14780 107-444 limits assumed): as the sequence (P14780 107-444 limits assumed) above

- koff [1, 2]: ~4 10^−4 s^−1
- kon [1, 2]: ~7 10^4 M^−1 s^−1
- affinity for hMMP-9 (in words) (MMP-9): high affinity
- affinity for mMMP-2 (in words) (mouse MMP-2): low affinity
- Ki (mouse MMP-2; IgG, Table 12): 0.076 µM
- affinity for hMMP-2 (in words) (human MMP-2): high affinity
- affinity for mMMP-9 (in words) (Mouse MMP-9): high affinity
- binding of huTIMP-1/cat-huMMP-9 (h-MMP-9/h-TIMP-1 complex; Direct capture): No
- binding of huTIMP-1/cat-huMMP-9 (h-MMP-9/h-TIMP-1 complex; Fc capture): no binding was observed
- binding of huTIMP-1/cat-huMMP-9 (h-MMP-9/h-TIMP-1 complex; Fc capture, listed as 539A-M0237D02): No
B1: M0237-D02: MMP-9/-2 dual reactive antibody inhibitor (parental); sFab and hIgG1 (antibody, V domains shown)
VH: EVQLLESGGGLVQPGGSLRLSCAASGFTFSQYPMWWVRQAPGKGLEWVSYIVPSGGRTYYADSVKGRFTISRDNSKNTLYLQMNSLRAEDTAVYYCAKDRAYGDYVGWNGFDYWGQGTLVTVSS
VL: DIQMTQSPATLSLSPGERATLSCRASQSISSFLAWYQQKPGQAPRLLIYDASYRATGIPARFSGSGSGTDFTLTISSLEPEDYAVYYCQQRGNWPITFGQGTRLEIK
- kobs ([1]; M0237-D02 concentration 14.4 nM): 0.0013 s⁻¹
- kobs ([1]; M0237-D02 concentration 19.2 nM): 0.0019 s⁻¹
- kobs ([1]; M0237-D02 concentration 28.8 nM): 0.0024 s⁻¹
- kobs ([1]; M0237-D02 concentration 115.2 nM): 0.0086 s⁻¹

— patent US20110135573A1, “METALLOPROTEINASE 9 AND METALLOPROTEINASE 2 BINDING PROTEINS” (DYAX CORP., priority 2009, published 2011)
